Results as given in paper doi:10.1101/2025.07.24.666505.

How the values were obtained:
[1] = molecular target: DNA gyrase (GyrA+GyrB, full Gyrase);VcParE2 (Escherichia coli;Vibrio cholerae) (UniProt P0AES4+P0AES6+Q9KMJ0); test: EMSA
[2] = molecular target: Vibrio cholerae ParE2 (VcParE2), wild type, C-terminally histidine-tagged (Vibrio cholerae); test: BLI

Chain of UniProt P0AES4 (P0AES4 whole entry, one chain of several): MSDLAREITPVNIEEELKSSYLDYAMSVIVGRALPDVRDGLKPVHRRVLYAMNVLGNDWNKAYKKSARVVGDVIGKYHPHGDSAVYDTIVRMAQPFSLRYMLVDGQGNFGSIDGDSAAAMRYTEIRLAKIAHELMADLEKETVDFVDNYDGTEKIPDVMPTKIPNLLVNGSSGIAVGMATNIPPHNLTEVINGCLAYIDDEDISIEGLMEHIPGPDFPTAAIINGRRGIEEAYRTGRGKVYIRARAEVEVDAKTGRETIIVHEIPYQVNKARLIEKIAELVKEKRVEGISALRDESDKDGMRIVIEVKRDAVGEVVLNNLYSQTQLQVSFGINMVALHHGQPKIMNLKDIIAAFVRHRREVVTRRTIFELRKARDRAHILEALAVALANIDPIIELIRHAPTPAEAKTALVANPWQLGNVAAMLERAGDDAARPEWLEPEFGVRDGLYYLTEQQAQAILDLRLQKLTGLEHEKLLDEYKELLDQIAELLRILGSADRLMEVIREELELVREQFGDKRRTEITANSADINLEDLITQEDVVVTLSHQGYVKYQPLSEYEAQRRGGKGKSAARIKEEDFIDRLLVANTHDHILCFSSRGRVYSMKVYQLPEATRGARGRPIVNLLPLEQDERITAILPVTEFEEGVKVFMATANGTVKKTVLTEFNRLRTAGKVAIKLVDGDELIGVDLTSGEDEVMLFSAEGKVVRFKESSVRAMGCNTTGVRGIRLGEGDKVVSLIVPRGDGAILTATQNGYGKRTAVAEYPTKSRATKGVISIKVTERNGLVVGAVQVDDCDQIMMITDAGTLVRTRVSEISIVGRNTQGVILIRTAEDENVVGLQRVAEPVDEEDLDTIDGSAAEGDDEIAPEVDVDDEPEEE

Substance	binding [1]	Kd [2] [µM]
GCTGCTCATCATGGTTTGTGAGCAGTCAGTTTGCGGGAGGTGCGGGAAAATCTGGGGTTATGCTATTTGAGTACTGGAGAAAGAAAGTGAAAGGAAGATAAAACGGGATTCATACACCGTTAAATACCGGTTTAAAAATCCCGTGGCGCGTTTTAAAAAATCTGTGCGGCTGATTTTATGCCTGATTCTGTTTATTGCCTCAGAGCGGCGCTGACGCGTTTTCTGATGGCATCAAAAATTTCCTGTTCCCCGGTCTTATCCAGCCCCATATAAGGACGCGCAGGAA (double strand) [286-bp Mu strong gyrase site fragment]	binds	
VcParD2 peptide E41-S60 (N-terminal helix of the C-terminal domain)		0.778
